The values that follow come from patent US20100022459A1 (TEL AVIV UNIVERSITY FUTURE TECHNOLOGY DEVELOPMENT L P, published 2010).

In the assay the target is MBP (UniProt P0AEX9 27-392 = MBP). Put plainly: hIAPP peptide array incubated with MBP alone, immunoblot. The protocol: The cellulose membrane was then washed repeatedly with 0.05% Tween 20 in TBS. […] HRP-conjugated goat anti mouse antibodies (Jackson Laboratories, USA) were used as a secondary antibody. Immunoblots were developed using the Renaissance western blot Chemiluminescence Reagent (NEN, USA) according to Manufacturer's instructions and signal was quantified using densitometry. Regeneration of the cellulose membrane for reuse was carried out by sequential washing with Regeneration buffer I including 62.5 mM Tris, 2% SDS, 100 Mm 2-mercaptoethanol, pH 6.7, and Regeneration buffer II including 8 M urea, 1% SDS, 0.1% 2-mercaptoethanol. Efficiency of the washing steps was monitored by contacting the membrane with the chemiluminescence reagent, as described.
Background: A western blot detects proteins with antibodies after separation by electrophoresis.

Ends that are not written are not given here. cellulose membrane = cellulose membrane support bound via the C-terminal amino acid

B1: hIAPP3-12 (peptide)
peptide: Ac-NTATCATQRL
modifications: also: C-terminal residue bound to cellulose membrane
notes: 61-88; also called decamer of the hIAPP peptide array
B1: the binding result is on record as “no binding”.

B2: hIAPP7-16 (peptide)
peptide: Ac-CATQRLANFL
modifications: also: C-terminal residue bound to cellulose membrane
notes: as for B1
Take B2: the binding result is “no binding”.

B3: hIAPP11-20 (peptide)
peptide: Ac-RLANFLVHSS
modifications: also: C-terminal residue bound to cellulose membrane
notes: as for B1
For B3, the binding result is “no binding”.

B4: hIAPP25-34 (peptide)
peptide: Ac-AILSSTNVGS-{cellulose membrane}
notes: as for B1
B4: the binding result is on record as “no binding”.

B5: hIAPP10-19 (peptide)
peptide: Ac-QRLANFLVHS
modifications: also: C-terminal residue bound to cellulose membrane
notes: as for B1
As for B5, the binding result was “no binding”.

B6: hIAPP16-25 (peptide)
peptide: Ac-LVHSSNNFGA-{cellulose membrane}
notes: as for B1
Consider B6, for which the binding result is listed as “no binding”.

B7: hIAPP19-28 (peptide)
peptide: Ac-SSNNFGAILS
modifications: also: C-terminal residue bound to cellulose membrane
notes: as for B1
Regarding B7, the binding result was “no binding”.

B8: hIAPP5-14 (peptide)
peptide: Ac-ATCATQRLAN-{cellulose membrane}
notes: as for B1
For B8, the binding result is “no binding”.

B9: hIAPP1-10 (peptide)
peptide: Ac-KCNTATCATQ
modifications: cysteine pairing not given here; also: C-terminal residue bound to cellulose membrane
notes: 61-88 (hIAPP1-10 ... hIAPP28-37); also called decamer of the hIAPP peptide array
Take B9: the binding result is on record as “no binding”.

B10: hIAPP22-31 (peptide)
peptide: Ac-NFGAILSSTN-{cellulose membrane}
notes: as for B1
As to B10, the binding result is recorded as “no binding”.

B11: hIAPP4-13 (peptide)
peptide: Ac-TATCATQRLA-{cellulose membrane}
notes: as for B1
For the molecule B11, the binding result is listed as “no binding”.

B12: hIAPP28-37 (peptide)
peptide: Ac-SSTNVGSNTY-{cellulose membrane}
notes: as for B1
Regarding B12, the binding result is “no binding”.

B13: hIAPP26-35 (peptide)
peptide: Ac-ILSSTNVGSN-{cellulose membrane}
notes: as for B1
Regarding B13, the binding result is given as “no binding”.

B14: hIAPP8-17 (peptide)
peptide: Ac-ATQRLANFLV
modifications: also: C-terminal residue bound to cellulose membrane
notes: as for B1
Consider B14, for which the binding result is “no binding”.

B15: hIAPP27-36 (peptide)
peptide: Ac-LSSTNVGSNT-{cellulose membrane}
notes: as for B1
On to B15, for which the binding result is “no binding”.

B16: hIAPP12-21 (peptide)
peptide: Ac-LANFLVHSSN
modifications: also: C-terminal residue bound to cellulose membrane
notes: as for B1
With B16, the binding result is “no binding”.

B17: hIAPP14-23 (peptide)
peptide: Ac-NFLVHSSNNF-{cellulose membrane}
notes: as for B1
With B17, the binding result is reported as “no binding”.

B18: hIAPP13-22 (peptide)
peptide: Ac-ANFLVHSSNN-{cellulose membrane}
notes: as for B1
Consider B18, for which the binding result is “no binding”.

B19: hIAPP15-24 (peptide)
peptide: Ac-FLVHSSNNFG-{cellulose membrane}
notes: as for B1
Consider B19, for which the binding result is listed as “no binding”.

B20: hIAPP21-30 (peptide)
peptide: Ac-NNFGAILSST
modifications: also: C-terminal residue bound to cellulose membrane
notes: as for B1
Consider B20, for which the binding result was “no binding”.

B21: hIAPP6-15 (peptide)
peptide: Ac-TCATQRLANF-{cellulose membrane}
notes: as for B1
Take B21: the binding result is “no binding”.

B22: hIAPP23-32 (peptide)
peptide: Ac-FGAILSSTNV-{cellulose membrane}
notes: as for B1
Turning to B22, the binding result is “no binding”.

B23: hIAPP2-11 (peptide)
peptide: Ac-CNTATCATQR
modifications: cysteine pairing not given here; also: C-terminal residue bound to cellulose membrane
notes: as for B1
B23: the binding result is reported as “no binding”.

B24: hIAPP9-18 (peptide)
peptide: Ac-TQRLANFLVH
modifications: also: C-terminal residue bound to cellulose membrane
notes: as for B1
Take B24: the binding result is “no binding”.

B25: hIAPP18-27 (peptide)
peptide: Ac-HSSNNFGAIL-{cellulose membrane}
notes: as for B1
As to B25, the binding result is reported as “no binding”.

B26: hIAPP24-33 (peptide)
peptide: Ac-GAILSSTNVG-{cellulose membrane}
notes: as for B1
As for B26, the binding result was “no binding”.

B27: hIAPP17-26 (peptide)
peptide: Ac-VHSSNNFGAI-{cellulose membrane}
notes: as for B1
In the case of B27, the binding result is listed as “no binding”.
